In patent publication US20230204576A1 one finds Kd and binding site concentration B1 data, which are given here for one substance.

Assay [1] addresses HLA A*03:01, labelled with Alexafluor 647 (human). Nature of the assay: microfluidic diffusional sizing, 25 nM HLA, non-linear binding fit.
For assay [2] the target is unchanged. Nature of the assay: microfluidic diffusional sizing, global fit at 25 nM and 500 pM HLA.

One may read the Kd as the constant that tells how readily two partners part at equilibrium. Higher therefore signals weaker binding. In assay [1], antibody W6/32 registered a Kd of 0.961 nM and a binding site concentration B1 of 13 nM. Moreover, the Kd in assay [2] turned out to be 0.466 nM.
